Tests used:
[1] = biological target: in vitro translated S38A wee1 (UniProt P47817); assay: glutathione precipitation from Xenopus interphase egg extract with nuclei and MG132, wee1 Western blot
[2] = biological target: in vitro translated wild-type wee1 (UniProt P47817); assay: as above

% of input wee1 precipitated [1]	% of input wee1 pulled down [2]	% of input wee1 precipitated [2]	Substance
2.5 % of input	25 % of input		GST-Tome-1 (as used in the wee1 binding assay in Xenopus egg extracts) (from UniProt P08515 1-218)
8 % of input		8 % of input	GST-VCA (GST fusion with the C terminus of the actin nucleating scaffolding protein N-WASP) (from UniProt P08515 1-218)

Reference: patent US20050130175A1
